Target: the molecule itself
Assay: SEC; gel filtration, Superdex 200 10/300 GL, 25 mM Tris-Cl pH 8.0, 150 mM NaCl, 0.5 mL/min

B1: Mesaconyl-CoA C1-C4 CoA transferase (MCT) from Roseiflexus castenholzii (enzyme)
chain: MNGILSGMRIVEGSAFVAAPLGGMTLAQLGADVIRFDPIGGGLDYKRWPVTLDGKHSLFWAGLNKGKRSIAIDIRHPRGQELLTQLICAPGDEAGLFITNFPARGWLSYEALKAHRADLIMVNLLGRRDGGSEVDYTVNPQLGLPFMTGPFTSPEVVNHVLPAWDIVTGQMIALGLLAAERHRRRTGEGQLVKLALKDVGLAMIGHLGMIAEVMINDADRPKQGNYLYGAFGRDFETLDGKRVMVVGLTDLQWKALGKATGLTDAFNALGARLGLDMNDEGNRFRARREIAALLEPWFHARTFAEVRRVFEEHRVTWGPYRTVREAIAQDPDCSTENPMFTMVEQPGIGTYLMPASPLDFSRMPRLPAQRAPRLGEHTDEILLEVLGLSDGEVGKLHDEGIVAGPEEE
stoichiometry N: 2

— PMC9196870, “Crystal Structure of an Intramolecular Mesaconyl-Coenzyme A Transferase From the 3-Hydroxypropionic Acid Cycle of Roseiflexus castenholzii” (Frontiers in Microbiology, 2022)
